Experiment [1] concerns the target T1, Anti-CD28 Fab (SEQ ID NOs: 696, 697).
T1 construct: Biotinylated and captured on neutravidin coated plates in the phage ELISA
Put plainly: clonal phage ELISA on captured anti-CD28 Fab; wells pre-incubated with CD28 antigen as competitor. Background: An ELISA detects its analyte on a solid surface through an enzyme-linked reagent.
T1 sequence (VH, as listed by the source, chain 1 of 2): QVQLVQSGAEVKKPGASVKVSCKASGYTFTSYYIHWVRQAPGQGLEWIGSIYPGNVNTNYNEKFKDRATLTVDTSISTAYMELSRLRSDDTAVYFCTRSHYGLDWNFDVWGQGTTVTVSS
T1 sequence (VL, as listed by the source, chain 2 of 2): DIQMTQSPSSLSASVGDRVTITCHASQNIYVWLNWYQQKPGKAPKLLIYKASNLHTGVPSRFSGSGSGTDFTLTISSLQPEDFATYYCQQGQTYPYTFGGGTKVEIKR
Description: (§1) After panning, phage infected bacteria were plated out and colonies picked into 96 well blocks. Clonal phage was then amplified and separated from bacterial cells via centrifugation.
(§2) Clonal phage were harvested as crude supematants and screened via standard ELISAs. […] Prior to the addition of clonal phage, wells were incubated with blocking buffer and CD28 antigen or blocking buffer alone. Without washing or aspirating, clonal phage supematants were then added to the wells and incubated for a short time. Wells were then washed followed by detection of bound phage using a horse radish conjugated anti-M13 antibody. Clonal phage of interest were then sent for sequence analysis.

Experiment [2] shares this target. Put plainly: clonal phage ELISA; biotinylated anti-CD28 Fab on neutravidin plate, bound phage detected with anti-M13 HRP.
Target sequence in this assay (VH, as listed by the source, chain 1 of 2): as the sequence (VH, as listed by the source, chain 1 of 2) above
Target sequence in this assay (VL, as listed by the source, chain 2 of 2): as the sequence (VL, as listed by the source, chain 2 of 2) above
Description: as §1, §2
Experiment [3] deals with T2, Anti-CD28 Fab (SEQ ID NOs: 696, 697).
T2 construct: In the phage ELISA the Fab was biotinylated and captured on neutravidin coated plates
Put plainly: phage ELISA; captured anti-CD28 Fab pre-incubated with CD28 antigen as competitor, anti-M13 HRP.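 Note: crude clonal phage supernatants added without washing after CD28 pre-incubation, bound phage detected with HRP anti-M13 antibody, reference wells got blocking buffer lacking CD28.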
T2 sequence (VH, as listed by the source, chain 1 of 2): as the sequence (VH, as listed by the source, chain 1 of 2) above
T2 sequence (VL, as listed by the source, chain 2 of 2): as the sequence (VL, as listed by the source, chain 2 of 2) above
Description: as §1, §2

Experiment [4] shares this target. In words: phage ELISA; biotinylated anti-CD28 Fab on neutravidin plate, clonal phage supernatant, anti-M13 HRP.
Target sequence in this assay (VH, as listed by the source, chain 1 of 2): as the sequence (VH, as listed by the source, chain 1 of 2) above
Target sequence in this assay (VL, as listed by the source, chain 2 of 2): as the sequence (VL, as listed by the source, chain 2 of 2) above
Description: as §1, §2

Where no end group is shown, it is not given here.

With YCEGHSAEYIGKCL [Phage-1187], the “Phage binding ELISA, Anti-CD28 Fab signal in the presence of CD28” value in experiment [1] is 0.07. In addition, in experiment [2], the “Phage binding ELISA, Anti-CD28 Fab signal” value stood at 1.08.

B1: Phage-1198 (peptide)
peptide: YCEGHDVQYMQKCL
modifications: cysteine pairing not given here; also: displayed on phage by fusion to pIII, linker and pIII sequence not given here
Consider B1, for which the “Anti-CD28 Fab signal in the presence of CD28 (phage binding ELISA)” value in experiment [3] turned out to be 0.08. Besides, the “Anti-CD28 Fab signal (phage binding ELISA)” value in experiment [4] is 1.06.
For the molecule YCVGHLPEYMLECM [Phage-1188], in experiment [1], the “Phage binding ELISA, Anti-CD28 Fab signal in the presence of CD28” value is 0.07. Also, the “Phage binding ELISA, Anti-CD28 Fab signal” value in experiment [2] is 1.08.

B2: Phage-1202 (peptide)
peptide: YCEGHLPSYLAKCL
modifications: cysteine pairing not given here; also: displayed on phage by fusion to pIII, linker and pIII sequence not given here
Consider B2, for which the “Anti-CD28 Fab signal in the presence of CD28 (phage binding ELISA)” value in experiment [3] is 0.06. Also, the “Anti-CD28 Fab signal (phage binding ELISA)” value in experiment [4] stood at 1.05.
Turning to YCAGHAEEYMLKCL [Phage-1186], the “Phage binding ELISA, Anti-CD28 Fab signal in the presence of CD28” value in experiment [1] was 0.07. Besides, the “Phage binding ELISA, Anti-CD28 Fab signal” value in experiment [2] turned out to be 1.09.

B3: Phage-1197 (peptide)
peptide: YCEGHLWEYMKKCL
modifications: cysteine pairing not given here; also: displayed on phage by fusion to pIII, linker and pIII sequence not given here
B3: in experiment [3], the “Anti-CD28 Fab signal in the presence of CD28 (phage binding ELISA)” value was determined as 0.07. In experiment [4], the “Anti-CD28 Fab signal (phage binding ELISA)” value turned out to be 1.06.

B4: Phage-1199 (peptide)
peptide: YCEGHSSEYLGKCL
modifications: cysteine pairing not given here; also: displayed on phage by fusion to pIII, linker and pIII sequence not given here
As for B4, the “Anti-CD28 Fab signal in the presence of CD28 (phage binding ELISA)” value in experiment [3] was determined as 0.09. In addition, the “Anti-CD28 Fab signal (phage binding ELISA)” value in experiment [4] is 1.05.

B5: Phage-1200 (peptide)
peptide: YCDGHLPRYMEKCM
modifications: cysteine pairing not given here; also: displayed on phage by fusion to pIII, linker and pIII sequence not given here
B5: the “Anti-CD28 Fab signal in the presence of CD28 (phage binding ELISA)” value in experiment [3] was 0.06. Besides, the “Anti-CD28 Fab signal (phage binding ELISA)” value in experiment [4] was 1.05.

B6: Phage-1206 (peptide)
peptide: YCEGHSVEYILKCL
modifications: cysteine pairing not given here; also: displayed on phage by fusion to pIII, linker and pIII sequence not given here
Consider B6, for which, in experiment [3], the “Anti-CD28 Fab signal in the presence of CD28 (phage binding ELISA)” value came out at 0.06. The “Anti-CD28 Fab signal (phage binding ELISA)” value in experiment [4] came out at 1.04.
Turning to YCEGHAQEYMAKCL [Phage-1193], in experiment [1], the “Phage binding ELISA, Anti-CD28 Fab signal in the presence of CD28” value worked out at 0.08. Also, the “Phage binding ELISA, Anti-CD28 Fab signal” value in experiment [2] was found to be 1.06.
As for YCDGHAKVYIWKCL [Phage-1194], the “Phage binding ELISA, Anti-CD28 Fab signal in the presence of CD28” value in experiment [1] was 0.08. The “Phage binding ELISA, Anti-CD28 Fab signal” value in experiment [2] amounted to 1.06.

B7: Phage-1196 (peptide)
peptide: YCDGHAPIYMQKCL
modifications: cysteine pairing not given here; also: displayed on phage by fusion to pIII, linker and pIII sequence not given here
Turning to B7, the “Anti-CD28 Fab signal in the presence of CD28 (phage binding ELISA)” value in experiment [3] was 0.06. In addition, the “Anti-CD28 Fab signal (phage binding ELISA)” value in experiment [4] was found to be 1.06.
Turning to YCDGHTKEYMWKCL [Phage-1185], in experiment [1], the “Phage binding ELISA, Anti-CD28 Fab signal in the presence of CD28” value was 0.06. The “Phage binding ELISA, Anti-CD28 Fab signal” value in experiment [2] was determined as 1.1.
YCEGHSEMYMSKCL [Phage-1190]: the “Phage binding ELISA, Anti-CD28 Fab signal in the presence of CD28” value in experiment [1] was found to be 0.09. Further, the “Phage binding ELISA, Anti-CD28 Fab signal” value in experiment [2] was 1.07.
As to YCEGHIPMYMLKCM [Phage-1192], the “Phage binding ELISA, Anti-CD28 Fab signal in the presence of CD28” value in experiment [1] was 0.09. In experiment [2], the “Phage binding ELISA, Anti-CD28 Fab signal” value worked out at 1.06.

B8: Phage-1204 (peptide)
peptide: YCEGHAPQYMSKCL
modifications: cysteine pairing not given here; also: displayed on phage by fusion to pIII, linker and pIII sequence not given here
Take B8: the “Anti-CD28 Fab signal in the presence of CD28 (phage binding ELISA)” value in experiment [3] turned out to be 0.08. The “Anti-CD28 Fab signal (phage binding ELISA)” value in experiment [4] was 1.04.

B9: Phage-1201 (peptide)
peptide: YCDGHSSAYIDKCL
modifications: cysteine pairing not given here; also: displayed on phage by fusion to pIII, linker and pIII sequence not given here
In the case of B9, in experiment [3], the “Anti-CD28 Fab signal in the presence of CD28 (phage binding ELISA)” value stood at 0.06. Besides, the “Anti-CD28 Fab signal (phage binding ELISA)” value in experiment [4] stood at 1.05.

B10: Phage-1203 (peptide)
peptide: YCDGHAPEFIRKCL
modifications: cysteine pairing not given here; also: displayed on phage by fusion to pIII, linker and pIII sequence not given here
As to B10, the “Anti-CD28 Fab signal in the presence of CD28 (phage binding ELISA)” value in experiment [3] was found to be 0.07. Moreover, the “Anti-CD28 Fab signal (phage binding ELISA)” value in experiment [4] is 1.05.
Regarding YCDGHSFHYMAKCL [Phage-1189], the “Phage binding ELISA, Anti-CD28 Fab signal in the presence of CD28” value in experiment [1] was found to be 0.06. Also, the “Phage binding ELISA, Anti-CD28 Fab signal” value in experiment [2] came to 1.08.
On to YCDGHANAYIWKCL [Phage-1191], for which, in experiment [1], the “Phage binding ELISA, Anti-CD28 Fab signal in the presence of CD28” value was found to be 0.09. For the same molecule, the “Phage binding ELISA, Anti-CD28 Fab signal” value in experiment [2] is 1.07.

B11: Phage-1195 (peptide)
peptide: YCEGHIPAYMAKCL
modifications: cysteine pairing not given here; also: displayed on phage by fusion to pIII, linker and pIII sequence not given here
Consider B11, for which the “Anti-CD28 Fab signal in the presence of CD28 (phage binding ELISA)” value in experiment [3] stood at 0.08. The “Anti-CD28 Fab signal (phage binding ELISA)” value in experiment [4] came out at 1.06.

B12: Phage-1205 (peptide)
peptide: YCDGHDARYMTKCL
modifications: cysteine pairing not given here; also: displayed on phage by fusion to pIII, linker and pIII sequence not given here
For the molecule B12, in experiment [3], the “Anti-CD28 Fab signal in the presence of CD28 (phage binding ELISA)” value worked out at 0.09. The “Anti-CD28 Fab signal (phage binding ELISA)” value in experiment [4] turned out to be 1.04.

The values are drawn from patent US20260242478A1 (published 2026).
